Source: the supplement of paper PMC9170038

Test system: MS2 coat protein
Experiment: apparent KD of MS2 coat protein; designed switch direction (-1 OFF switch, 1 ON switch): -1; higher = weaker reporter binding
Summary of the method: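 An oligonucleotide input, 200 uM small-molecule ligand, or no input was present during titration of SNAP-549-labelled MS2 coat protein, which was doubled from 0.7 or 1.5 nM to 3 µM. Designed RNA switches had been transcribed on Illumina chips by stalled E. coli RNA polymerase. Apparent KD per design is the median over clusters of curves fitted to normalised cluster fluorescence.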

[1] = input ligand: microRNA oligo, concentration not stated
[2] = Eterna round: R95, input ligand: FMN 200 uM
[3] = Eterna round: R95, input ligand: microRNA oligo, concentration not stated
[4] = Eterna round: R95, input ligand: none

Sequence	apparent KD of MS2 coat protein (input ligand: FMN 200 uM)	apparent KD of MS2 coat protein [1]	apparent KD of MS2 coat protein (input ligand: none)	apparent KD of MS2 coat protein [2]	apparent KD of MS2 coat protein [3]	apparent KD of MS2 coat protein [4]
UUAAAGGCAGGAUAUACAUUUUUUUUAUUAUCCUCAUUAUUACAUGAGGAUCACCCAUGUAGAAGGGCCAAAUU [Mat - Exclusion 2 - Mod of Hog - D85] (Eterna round: R96, puzzle: Exclusion 2)	312 nM	187 nM	357 nM	–	–	–
CUCGUGUGAGGAUAUUCACACCCGUCAAAACAACGGACAAAGAAGAAGGCACAUGAGGAUCACCCAUGUAAAGA [Usenisor] (Eterna round: R97, puzzle: Exclusion 4)	92.1 nM	–	106 nM	–	–	–
UGGACACCAGUAGGAUAUGUAGGAUAUGUUGUUGAGGAUCACCCAACAAAUUAAACGACAGAAGGACAGAAGGACUAUUAUCCU [pwkr exNG2 2xFMN 1xF5.1] (Eterna round: R96, puzzle: Exclusion NG 2)	52.5 nM	57.8 nM	60.8 nM	–	–	–
GCUUGGCGAGGAUAUACAUGAGGAUCACCCAUGUGAGAGAAUAAAGUGAGGAAGAAAAGUAGAAGGCGCUGAGG [Mat - Exclusion 3 - Mod of Salish D58] (Eterna round: R96, puzzle: Exclusion 3)	181 nM	45 nM	54.5 nM	–	–	–
GGGCCCGGUGUGAGGAUAUUUGAAGUGAAAGCUUCGGAGAAGGCACAUGAGGAUCACCCAUGUAAGCCGGGCCC [-35.9, -33.8 kcal, A 26%, 3bis-0] (Eterna round: R97, puzzle: Brourd's mod of Exclusion 4)	16.1 nM	–	13.4 nM	–	–	–
UUUAAUUUUUUUUUUUUACAAGCUUUUUGCUCGUCUUAUACAUGAGGAUCACCCAUGUGGGUAAAGGGUAAAUUAUC [JMF 80] (puzzle: Sensor v3, turn-off variant 2)	–	–	–	23 nM	50.9 nM	20.9 nM
GCGCGCGCAGGAUAUACAUGAGGAUCACCCAUGUAGGGCCCGGGUAUUCCCGGGCCCUGUAGAAGGGUGUGUGU [-40.4, -37.1 kcal, A 19%, 0-6] (Eterna round: R97, puzzle: Exclusion 3)	21.8 nM	–	113 nM	–	–	–
GGUUGACAUGAGGAUCACCCAUGUGAGGAUAUGCGAGAGAAAAAAGUGAGGAAGAUAAGCAGAAGGCGCUGUCG [salish99-ex1_r3_013] (puzzle: Exclusion 1)	–	–	–	118 nM	178 nM	260 nM
UUCCUACAUGAGGAUCACCCAUGUCAGGAUAUCUCCUCACCGCGAAAAGGCGGUGAAAAGAGAAGGGACAGGAA [Usbian] (puzzle: Exclusion 1)	–	–	–	16 nM	10.7 nM	13.8 nM
CGAUGCACGAGUCCACAUGAGGAUCACCCAUGUCGUGUUAGCGAGGAUAUCGGAGACACAUAGUAUGAGAAGGCGCGAACCUGA [Ex NG3 #21] (Eterna round: R96, puzzle: Exclusion NG 3)	16.4 nM	11.2 nM	13.4 nM	–	–	–
AGCGCCAUCGUGAGAUGGCGUAUUACAUGAGGAUCACCCAUGUAGGAUAUCGAUUGCUUUGCAGUCGAGAAGGACAUGUUCUUU [JL ENG3 3.80 Mod D] (Eterna round: R96, puzzle: Exclusion NG 3)	27.1 nM	19.3 nM	23.4 nM	–	–	–
UUUGUUGUUGUGAGGAUAUACUGUUUGUUUUGUUUGUAGAAGGUACAUGAGGAUCACCCAUGUUGGUUGUUUUU [JR_BME4_Sub030] (puzzle: Brourd's mod of Exclusion 4)	–	–	–	–	24.3 nM	–
GAGAAGGUAGGAUAUACGAAGAAAGAGGGUAGGAAGAAUACACAUGAGGAUCACCCAUGUAGAAGGACCAAGAG [Mat - Exclusion 2 - Mod of my Tesla design - D47] (puzzle: Exclusion 2)	–	–	–	32.9 nM	17.8 nM	23 nM
GAAAAGGUAGGAUAUACGAAAAUAAAGGGUAGAAAAAAAACACAUGAGGAUCACCCAUGUAGAAGGACCAAAAG [salish99_ex2_r3_083] (puzzle: Exclusion 2)	–	–	–	68.3 nM	33.4 nM	36.4 nM
CGAGUGUAAGGAUAUUCGGCGCCAGAGAACGAUCUGACGUAGAAGAAGGUACAUGAGGAUCACCCAUGUGGUUA [Geinzarace] (puzzle: Exclusion 4)	–	–	–	41.6 nM	102 nM	204 nM
UAUAUAUAGUAAGGAUAUGUAUUAAUUUUAGAAACAGAAGGUACUGACAUGAGGAUCACCCAUGUUUUAGUGUGGGCAUGUAGA [JMF's solution 88] (Eterna round: R96, puzzle: Exclusion NG 1)	–	75.7 nM	–	–	–	–
GGUGAGCUAGGAUAUGCUUUGGGCUCGCUUUCCUUCGAUAAACUUGAGGAUCACCCAAGUAGAAGGAGCUUGCC [salish99_ex2_r4_033] (Eterna round: R97, puzzle: Exclusion 2)	14.8 nM	–	12 nM	–	–	–
AAUCCACAUGAGGAUCACCCAUGUCAGGAUAUCGCGCGCGCGUUUUCGGUCUUGCGCGCGAGAAGGGACGGCUG (puzzle: Exclusion 1)	–	–	–	–	22.9 nM	–
AAUUUUGGAGGAUAUACAUCCCAGGAUCCAGUAAUUAAGUUACAUGAGGAUCACCCAUGUAGAAGGUCAAGAGU [Eternabot (L1) Solution 75] (Eterna round: R97, puzzle: Exclusion 2)	53.3 nM	–	44.4 nM	–	–	–
AGAUGUAGAUUCCGAUCCUACAUGAGGAUCACCCAUGUAGCUAGACGUGCGGGCGGCGCUCGUCGGACUACCAGUAG [salish99_TOv1_r3_096] (puzzle: Sensor v3, turn-off variant 1)	–	–	–	53.5 nM	69.8 nM	84.6 nM
GAUUAGCAAGUGAGAUCCCACAUGAGGAUCACCCAUGUGCUCGUCUUAUAAGGUACUGUGACGAAAGUCACGGUACC [Mat - Sensor, turn-off var - Eli Mod - D6] (Eterna round: R97, puzzle: Sensor, turn-off variant 1)	424 nM	–	226 nM	–	–	–
UUGUUAUGUGUAGGAUAUGCGUGUUAUUAUUAUGCAGAAGGACAUGAGGAUCACCCAUGUGUAUUGUUAUUAUAUAUUAUAUAU [Title] (Eterna round: R96, puzzle: Exclusion NG 1)	21 nM	13.2 nM	20.8 nM	–	–	–
AAUGUUUGAUUCCACUUAUACAUGAGGAUCACCCAUGUUAUCGAGGAUAUGCAUUAGAGUGUUUAGCAGAAGGCGAUGUAAUUG [JR_ExcNG3_Sub034] (Eterna round: R96, puzzle: Exclusion NG 3)	90.2 nM	13.1 nM	13.8 nM	–	–	–
ACAAGCUUUUUGCAAUUUAGUUUUGUUGCUUCGUAGGUAACAUGAGGAUCACCCAUGUAAGAGUGAUGUCGUCUUAU [JR_SV3TOV2_Sub084] (puzzle: Sensor v3, turn-off variant 2)	–	–	–	520 nM	141 nM	609 nM
CGGUGCUGAGGAUAUACAUGAGGAUCACCCAUGUGUUCCAGCUAGGUGACUGGCAAAUGUAGAAGGCGGUACUG [JL-ex3-3.36 Brourd mod] (puzzle: Exclusion 3)	–	–	–	40.7 nM	77.7 nM	105 nM
AGUACUAACACGGAUGUGUUAGUACAAUAAGCUUGUGAAACAUGAGGAUCACCCAUGUCCUCAUAAGCUCGUCUUAU [salish99_TOv2_r3_067] (puzzle: Sensor v3, turn-off variant 2)	–	–	–	15.5 nM	677 nM	14.7 nM
CUUUAGUGAGGAUAUCGGUAGUAAUACAAUAGUAUUACUACUGAGAAGGCACAUGAGGAUCACCCAUGUUCCUC [Mat - Exclusion 4 - Mod of Omei - D82] (puzzle: Exclusion 4)	–	–	–	–	30.2 nM	–
AGCCCUUGUGUCAGGAUAUGCAUCCUUAAAGGACGGCAGAAGGGACAUGAGGAUCACCCAUGUAAAUAGAAAUU [Onatatge] (puzzle: Brourd's mod of Exclusion 4)	–	–	–	16.2 nM	84 nM	141 nM
GUUGCGUUUGUGAGGAUAUGCUGGUCCUUGGUUCGGCAGAAGGCACAUGAGGAUCACCCAUGUGGUGUCGUUCC [salish99_Bmod_ex4_051] (puzzle: Brourd's mod of Exclusion 4)	–	–	–	–	13.3 nM	–
GAUUAUGCGAGCUUUAGGGACAUGAGGAUCACCCAUGUUCGUCUUAUUGGUCUAGAUACACUGACAUACCUAAAUCU [JMF 58] (puzzle: Sensor v3, turn-off variant 1)	–	–	–	14.8 nM	19.1 nM	14 nM
